The record followed here is paper PMC5835413 (Journal of structural biology, 2017).

The labels stand for the following.
B1: Fluorescent p190-PH: CFP fused to the N-terminus of the p190 PH domain (domain or fragment)
chain: EKNQKWLEILNKIENKTYTKLKNGHVFRKQALMSEERTLLYDGLVYWKTATGRFKDILALLLTDVLLFLQEKDQKYIFAAVDQKPSVISLQKLIAREVANEERGMFLISASSAGPEMYEIHTNSKEERNNWMRRIQQAVESCPEEK

Assay [1] has as its target Non-tagged Rac1 bound to GTPγS (human, UniProt P63000 1-192). As to the kind of experiment: FRET or BRET. A general note: In BRET a luciferase serves as donor, and the signal depends on an acceptor being close.
The target in the next assay is GST-RhoC (human, UniProt P08134 1-193). As to the kind of experiment: pull-down.
Sequence of GST-RhoC (P08134 whole entry): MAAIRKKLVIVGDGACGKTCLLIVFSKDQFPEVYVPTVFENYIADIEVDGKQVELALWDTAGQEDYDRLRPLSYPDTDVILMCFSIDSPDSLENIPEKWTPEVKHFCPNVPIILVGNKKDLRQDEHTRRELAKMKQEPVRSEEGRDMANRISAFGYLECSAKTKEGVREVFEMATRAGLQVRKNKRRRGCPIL
The next assay concerns the target GST-Rac2 (human, UniProt P15153 1-192). As to the kind of experiment: pull-down.
In another assay the target is GST-Rac3 (human, UniProt P60763 1-192). As to the kind of experiment: pull-down.
A further assay concerns the target GST-RhoB (human, UniProt P62745 1-196). As to the kind of experiment: pull-down.
Assay [2] addresses Non-tagged RhoA bound to GTPγS (human, UniProt P61586 1-193). As to the kind of experiment: ITC. On the technique in general: In ITC the heat of successive injections is recorded.
Assay [3] concerns the target B1. As to the kind of experiment: FRET or BRET.

Sequence of Non-tagged RhoA bound to GTPγS (P61586 whole entry): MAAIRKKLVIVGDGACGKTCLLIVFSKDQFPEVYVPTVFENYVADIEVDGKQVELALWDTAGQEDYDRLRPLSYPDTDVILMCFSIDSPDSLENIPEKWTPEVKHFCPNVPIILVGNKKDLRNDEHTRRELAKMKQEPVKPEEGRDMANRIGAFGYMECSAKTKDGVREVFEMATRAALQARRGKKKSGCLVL
Sequence of GST-RhoB (P62745 whole entry): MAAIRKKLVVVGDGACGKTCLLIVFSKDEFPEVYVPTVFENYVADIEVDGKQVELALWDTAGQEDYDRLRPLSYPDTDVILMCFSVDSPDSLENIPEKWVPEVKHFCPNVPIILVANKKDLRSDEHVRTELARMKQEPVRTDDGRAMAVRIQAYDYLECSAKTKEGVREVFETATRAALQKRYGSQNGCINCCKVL

By Kd is commonly meant the constant that tells how readily two partners part at equilibrium. B1 registered a Kd in assay [1] of around 20 µM.

B2: PH domain of human p190RhoGEF (residues 1049-1194) with C-terminal His6 (domain or fragment, UniProt Q8N1W1 1049-1194, looked up)
chain: EKNQKWLEILNKIENKTYTKLKNGHVFRKQALMSEERTLLYDGLVYWKTATGRFKDILALLLTDVLLFLQEKDQKYIFAAVDQKPSVISLQKLIAREVANEERGMFLISASSAGPEMYEIHTNSKEERNNWMRRIQQAVESCPEEK
Take B2: the binding result in the assay with GST-RhoC, with GST-Rac2, in the assay with GST-Rac3 and with GST-RhoB was “binds” in each case. The molecule further registered a Kd in assay [2] of around 2 µM.

B3: PH domain of AKAP-Lbc (domain or fragment, UniProt Q12802 2192-2333, looked up)
chain: VASYEKKVRLNEIYTKTDSKSIMRMKSGQMFAKEDLKRKKLVRDGSVFLKNAAGRLKEVQAVLLTDILVFLQEKDQKYIFASLDQKSTVISLKKLIVREVAHEEKGLFLISMGMTDPEMVEVHASSKEERNSWIQIIQDTIN
Consider B3, for which the affinity in assay [2], expressed as Kd, was 3.1 µM.

B4: Non-tagged mutant (E40D/V43S/A56G) RhoA bound to GTPγS (natural protein)
chain: not shown
With B4, the “fold reduction in affinity against wild-type RhoA” value in assay [3] was 2 fold.

B5: PH domain of p114RhoGEF (domain or fragment, UniProt Q6P9R4 723-825, looked up)
chain: QLHLEGALCWKSTSGRLKDVLAVLLTDVLLLLQEKDQKYVFASVDSKPPVISLQKLIVREVANEEKAMFLISASMQGPEMYEMYTSSKEDRNIWMAHIRRAVE
Molecule B5 showed a Kd in assay [2] of 13 µM.

B6: PH domain of human PDZRhoGEF (residues 927-1085) with C-terminal His6 (domain or fragment, UniProt O15085 927-1085, looked up)
chain: TENRHRLEGYQKRLDATALERASNPLAAEFKSLDLTTRKMIHEGPLTWRISKDKTLDLHVLLLEDLLVLLQKQDEKLLLKCHSKTAVGSSDSKQTFSPVLKLNAVLIRSVATDKRAFFIICTSKLGPPQIYELVALTSSDKNTWMELLEEAVRNATRHP
Molecule B6 showed a Kd in assay [2] of 1.2 µM. This Kd is about 11-fold lower than that of the molecule before.
